Patent publication US9212226B2, “Amino acid sequences directed against CXCR4 and other GPCRs and compounds comprising the same” (Ablynx N.V., priority 2008, dated 2015)

Assays:
CXCR4 [1] = molecular target: T1, CXCR4 (Homo sapiens, UniProt P61073); assay: [125I]-238D4 competition binding on membranes from HEK293T cells transiently expressing CXCR4; conditions: membranes from HEK293T cells transiently expressing CXCR4; mean ± S.E.M.
Target sequence in this assay (P61073 whole entry): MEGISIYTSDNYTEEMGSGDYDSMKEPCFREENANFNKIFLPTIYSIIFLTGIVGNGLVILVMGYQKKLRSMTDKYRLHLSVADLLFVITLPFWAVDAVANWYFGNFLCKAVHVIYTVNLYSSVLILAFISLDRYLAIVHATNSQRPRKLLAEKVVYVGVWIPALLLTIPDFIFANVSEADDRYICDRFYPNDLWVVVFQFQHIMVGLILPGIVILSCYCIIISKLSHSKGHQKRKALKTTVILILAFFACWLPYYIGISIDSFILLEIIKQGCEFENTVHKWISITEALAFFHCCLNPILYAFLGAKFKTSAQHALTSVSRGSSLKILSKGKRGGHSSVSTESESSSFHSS

CXCR4 [2] = molecular target: T1, CXCR4; assay: Phage ELISA binding assay on CHO-CXCR4 versus CHO membranes; design: expressed in transfected cells; host or cells: CHO cells (membrane preparation); conditions: monoclonal phages, CHO-CXCR4 vs CHO membranes
Experimental: FIG. 2. Results from Phage ELISA (as described in example 1.5).
In order to determine binding specificity of the Nanobodies, 15 ul of the produced phage were tested in an Phage ELISA binding assay.
In short, 2 ug in 100 ul PBS of membrane expressing either CXCR4 (CHO-CXCR4) or a non relevant GPCR(CHO) were coated directly on Maxisorp microtiter plates (Nunc) overnight at 4 C. Free binding sites were blocked using 4% Marvel in PBS for 1 h. Next, 15 ul of monoclonal phages was added in 100 ul 1% Marvel PBS for 2 hours. […] Binding specificity (binding to CHO-CXCR4) was determined based on OD values compared to controls (binding to CHO).
Target sequence in this assay (P61073 with tags, fused parts or gaps isoform P61073-2 limits assumed): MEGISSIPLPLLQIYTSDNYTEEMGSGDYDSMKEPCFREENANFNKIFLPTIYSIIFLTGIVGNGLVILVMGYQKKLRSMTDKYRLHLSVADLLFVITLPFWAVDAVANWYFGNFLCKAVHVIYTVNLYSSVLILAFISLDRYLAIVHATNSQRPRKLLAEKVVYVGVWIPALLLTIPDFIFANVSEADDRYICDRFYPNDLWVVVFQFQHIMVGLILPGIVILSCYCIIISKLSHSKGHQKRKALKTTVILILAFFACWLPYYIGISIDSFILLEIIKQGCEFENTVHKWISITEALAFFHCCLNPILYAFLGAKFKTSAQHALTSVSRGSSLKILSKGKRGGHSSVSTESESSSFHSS

B1: 238D4: Nanobody (VHH) raised against human CXCR4, SEQ ID NO: 239 (protein)
VHH: EVQLMESGGGLVQAGGSLRLSCAASGRTFNNYAMGWFRRAPGKEREFVAAITRSGVRSGVSAIYGDSVKDRFTISRDNAKNTLYLQMNSLKPEDTAVYTCAASAIGSGALRRFEYDYSGQGTQVTVSS
modifications: Nanobody, Nanobody constructs or fragments thereof
- Displacem. (%) of [125I]-238D4 (maximal displacement) (CXCR4 [1]): 103 ± 1%

B2: 238D2: Nanobody (VHH) raised against human CXCR4, SEQ ID NO: 238 (protein)
VHH: EVQLVESGGGLVQTGGSLRLSCAASGFTFSSYAMSWVRQAPGKGLEWVSGIKSSGDSTRYAGSVKGRFTISRDNAKNMLYLQMYSLKPEDTAVYYCAKSRVSRTGLYTYDNRGQGTQVTVSS
modifications: Nanobody, Nanobody constructs or fragments thereof
- specificity toward CXCR4 expressing membrane compared to non-expressing membrane (CXCR4 [2]): high specificity
